Results published in patent US20240181067A1, “TARGETED BIFUNCTIONAL DEGRADERS AND METHODS USING SAME” (YALE UNIVERSITY, priority 2021, published 2024).

Biological target: streptavidin AF488 (Streptomyces avidinii, UniProt P22629)
Experiment: Degradation of a target protein using an LRP1 binding motif
Assay type: cell-based
Conditions: FIG. 12
Source text: Some studies have been done on other bifunctional molecules comprising an LRP1 binding motif depicted in FIG. 2 and a biotin Target binding motif, wherein these bifunctional molecules also noncovalently bind streptavidin (FIG. 11).

Chain of streptavidin AF488 (P22629 25-183): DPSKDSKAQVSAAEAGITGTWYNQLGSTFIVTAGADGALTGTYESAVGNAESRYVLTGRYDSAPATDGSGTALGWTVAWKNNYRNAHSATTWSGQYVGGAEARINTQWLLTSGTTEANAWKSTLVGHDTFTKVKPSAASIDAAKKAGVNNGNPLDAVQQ

Ac.Ac.Biotin Angiopep-2: "the Ac.Ac.Biotin Angiopep-2 mediated degradation of streptavidin AF488"
degradation of streptavidin AF488: mediated degradation of streptavidin AF488
